Six molecules from patent US20100260765A1 (AstraZeneca / MedImmune, published 2010) can be followed below.

The target in experiment [1] is KDR endogenously expressed on human umbilical vein endothelial cells (HUVEC) (human, UniProt P35968 20-1356). Description: cell-based or functional assay.
The target in experiment [2] is T1, soluble KDR extracellular domain (ECD) (Calbiochem) (human, UniProt P35968 20-764).
T1 construct: extracellular domain; Bought protein; also called KDR-ECD; VEGF Receptor 2 D1-7, Cat. #676490
Description: High Antigen ELISA, KDR coat 500 ng/mL, supernatant 1:25. The protocol:
(§1) ELISA plates were coated with a greater amount of KDR (at 500 ng/mL) in comparison with the Limited Antigen Quantitation assay described below. Sample containing antibody (Ab) was titrated on the KDR-coated ELISA plates and was incubated overnight at 4° C. to allow Ab binding to approach equilibrium. Titration of Ab in sample covered a dilution range of 1:25 to 1:18,225. A standard curve of KDR-specific antibody of known concentration was used to define the linear range of the assay. Data within the linear range were used to derive the relative concentration of KDR-specific Ab in each titrated sample. The high KDR concentration and the overnight incubation limited the effect of Ab affinity, allowing quantitation of the relative amount of KDR-specific Ab present in each sample.

Experiment [3] deals with T1, soluble KDR extracellular domain (ECD) …. In words: High Antigen ELISA, KDR coat 500 ng/mL, supernatant 1:75. Here is the method:
as §1

The target is the same in experiment [4]. Description: High Antigen ELISA, KDR coat 500 ng/mL, supernatant 1:225. The protocol: as §1
(In an ELISA, binding on a coated surface is turned into a signal by an enzyme label.)

Experiment [5] has the same target. Description: High Antigen ELISA, KDR coat 500 ng/mL, supernatant 1:675. The protocol: as §1
The target is the same in experiment [6]. Description: High Antigen ELISA, KDR coat 500 ng/mL, supernatant 1:2025. Here is the method: as §1
Experiment [7] has the same target. Description: High Antigen ELISA, KDR coat 500 ng/mL, supernatant 1:6075. Here is the method:
as §1

Experiment [8] has the same target. Description: Limited Antigen ELISA, KDR coat 25 ng/mL, supernatant 1:25. Here is the method: (§2) Samples containing one concentration of antibody (Ab) (1:25 dilution) were incubated overnight to allow Ab binding to approach equilibrium. The low antigen concentration limited the effect of antibody concentration, allowing ranking of the antibodies based on their relative affinity.

Experiment [9] shares this target. In words: Limited Antigen ELISA, KDR coat 50 ng/mL, supernatant 1:25. Here is the method: as §2
Experiment [10] shares this target. In words: High Antigen ELISA, KDR coat 500 ng/mL, supernatant 1:18,225. Here is the method: as §1
The target is the same in experiment [11]. In words: Limited Antigen ELISA, KDR coat 12.5 ng/mL, supernatant 1:25. Here is the method: as §2
For experiment [12] the target is unchanged. In words: Limited Antigen ELISA, KDR coat 6.25 ng/mL, supernatant 1:25. The protocol: as §2
Experiment [13] shares this target. In words: Limited Antigen ELISA, KDR coat 3.125 ng/mL, supernatant 1:25. Here is the method: as §2

T1 sequence (P35968 20-764): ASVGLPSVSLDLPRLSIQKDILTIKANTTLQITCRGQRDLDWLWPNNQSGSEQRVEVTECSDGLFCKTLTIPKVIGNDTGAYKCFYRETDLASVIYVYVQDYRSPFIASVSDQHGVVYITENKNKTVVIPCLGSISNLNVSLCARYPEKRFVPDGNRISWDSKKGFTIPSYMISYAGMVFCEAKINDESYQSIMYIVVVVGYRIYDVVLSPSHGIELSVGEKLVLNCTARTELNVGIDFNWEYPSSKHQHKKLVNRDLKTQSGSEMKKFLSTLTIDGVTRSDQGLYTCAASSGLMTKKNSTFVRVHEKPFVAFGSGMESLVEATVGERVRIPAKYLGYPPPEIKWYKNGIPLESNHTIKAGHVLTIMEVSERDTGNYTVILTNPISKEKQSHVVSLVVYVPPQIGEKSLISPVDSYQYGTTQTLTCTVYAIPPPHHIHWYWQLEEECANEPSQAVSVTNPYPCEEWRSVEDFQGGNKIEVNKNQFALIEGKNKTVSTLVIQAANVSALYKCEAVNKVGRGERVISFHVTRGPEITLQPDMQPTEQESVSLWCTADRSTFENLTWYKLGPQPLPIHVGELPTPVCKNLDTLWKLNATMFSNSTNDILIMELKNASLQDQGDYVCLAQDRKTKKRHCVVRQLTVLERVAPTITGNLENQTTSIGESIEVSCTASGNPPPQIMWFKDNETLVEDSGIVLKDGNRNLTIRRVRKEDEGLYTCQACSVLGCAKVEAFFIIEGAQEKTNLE
Sequence of KDR endogenously expressed on human umbilical vein endothelial cells (HUVEC) (P35968 20-1356): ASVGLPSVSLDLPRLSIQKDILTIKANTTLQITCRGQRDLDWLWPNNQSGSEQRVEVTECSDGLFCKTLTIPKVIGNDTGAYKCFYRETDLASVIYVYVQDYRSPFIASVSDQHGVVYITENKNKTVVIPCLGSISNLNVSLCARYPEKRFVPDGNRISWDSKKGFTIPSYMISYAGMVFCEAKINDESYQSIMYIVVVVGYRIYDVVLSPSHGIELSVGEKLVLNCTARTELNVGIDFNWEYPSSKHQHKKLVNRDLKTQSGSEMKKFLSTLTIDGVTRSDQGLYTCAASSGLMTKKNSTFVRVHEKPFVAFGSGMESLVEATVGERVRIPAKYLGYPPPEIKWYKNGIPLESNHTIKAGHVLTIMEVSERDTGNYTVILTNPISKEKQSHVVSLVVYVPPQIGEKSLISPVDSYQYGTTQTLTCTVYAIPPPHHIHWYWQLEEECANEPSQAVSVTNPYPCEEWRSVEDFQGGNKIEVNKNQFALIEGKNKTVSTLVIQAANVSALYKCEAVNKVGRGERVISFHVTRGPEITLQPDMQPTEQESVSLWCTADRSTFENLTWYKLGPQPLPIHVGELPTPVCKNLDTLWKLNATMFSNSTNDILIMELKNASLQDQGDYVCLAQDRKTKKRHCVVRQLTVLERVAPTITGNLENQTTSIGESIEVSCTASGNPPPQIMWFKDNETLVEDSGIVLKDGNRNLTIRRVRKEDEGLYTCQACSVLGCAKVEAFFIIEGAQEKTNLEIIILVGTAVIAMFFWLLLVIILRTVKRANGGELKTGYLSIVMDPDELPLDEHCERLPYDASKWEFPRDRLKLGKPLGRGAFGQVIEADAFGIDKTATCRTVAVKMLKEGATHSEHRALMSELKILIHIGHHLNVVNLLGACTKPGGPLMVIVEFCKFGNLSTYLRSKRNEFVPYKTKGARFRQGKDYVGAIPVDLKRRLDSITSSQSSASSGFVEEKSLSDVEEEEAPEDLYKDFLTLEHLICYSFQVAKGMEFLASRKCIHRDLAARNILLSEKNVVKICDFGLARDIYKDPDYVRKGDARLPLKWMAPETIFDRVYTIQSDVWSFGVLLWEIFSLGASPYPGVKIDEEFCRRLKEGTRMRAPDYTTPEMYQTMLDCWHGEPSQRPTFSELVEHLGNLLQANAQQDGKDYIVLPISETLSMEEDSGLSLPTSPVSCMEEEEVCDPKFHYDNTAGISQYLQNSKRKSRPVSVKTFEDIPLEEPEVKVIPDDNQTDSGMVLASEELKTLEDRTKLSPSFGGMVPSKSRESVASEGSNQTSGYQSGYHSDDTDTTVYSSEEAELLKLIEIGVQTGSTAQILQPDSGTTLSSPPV

B1: 21A1 (antibody, V domains shown)
VH: QVQLVESGGGLVKPGGSLRLSCAASGFTFSDYYMSWIRQAPGKGLEWVSYISNSGITIYYADSVKGRFTISRDNAKNSLYLQMNSLRAGDTAVYYCAREEWYSSRWYRNFDYWGQGTLVTVSS
VL: DIQMTQFSSSLSASVGDRVTITCRASQSISRYLNWYQQKPGKAPKLLIYAASSLQSGVPSRFNGSGSGTDFTLTISSLQPEDFATYYCQQSYSAPLTFGGGTKVEIK
notes: Fully human mAb from XenoMouse hybridoma, tested as hybridoma supernatant
B1: the “VEGF-E-mediated Survival % Inhibition (Average)” value in [1] was 42%. Moreover, in [1], the “VEGF-E-mediated Survival % Inhibition (n = 1)” value stood at 45%. Further, the “VEGF-E-mediated Survival % Inhibition (n = 2)” value in experiment [1] is 40%. The ELISA reading in experiment [2] worked out at 4.45; in experiment [3] it was 4.43; in experiment [4] it was 4.14; in [5] it was 3.36; in experiment [6], 1.66; in [7], 0.56. Further, the ELISA reading was 1.47 in experiment [8]; 2.65 in experiment [9]; 0.25 in experiment [10]; 0.81 in [11]; 0.38 in experiment [12]; 0.23 in [13].

B2: 21H6 (antibody, V domains shown)
VH: QVQLVESGGGLVKPGGSLRLSCAASGFTFSDYYMSWIRQAPGKGLEWVSYISNSGITIYYADSVKGRFTISRDNAKNSLYLQMNSLRAGDTAVYYCAREEWYSSRWYRNFDYWGQGTLVTVSS
VL: DIQMTQFSSSLSASVGDRVTITCRASQSISRYLNWYQQKPGKAPKLLIYAASSLQSGVPSRFNGSGSGTDFTLTISSLQPEDFATYYCQQSYSAPLTFGGGTKVEIK
notes: as for B1
B2: in experiment [1], the “VEGF-E-mediated Survival % Inhibition (Average)” value came to 55%. The “VEGF-E-mediated Survival % Inhibition (n = 1)” value in experiment [1] is 56%. The “VEGF-E-mediated Survival % Inhibition (n = 2)” value in experiment [1] worked out at 53%. In addition, the ELISA reading in [2] stood at 6; in experiment [3], 4.19; in experiment [4] it was 5.57; in experiment [5], 4.02; in experiment [6], 2.91; in experiment [7], 1.17. The ELISA reading stood at 0.97 in [8]; 1.83 in [9]; 0.54 in [10]; 0.52 in [11]; 0.23 in [12]; 0.15 in experiment [13].

B3: 21H9 (antibody, V domains shown)
VH: QVPLVESGGGVVQPGRSLRLSCAASGFTFSSYGMHWVRQAPGKGLEWVAVIWYDGSNKYYADSVQGRFTISRDNSKNTLYLQMNSLRAEDTAVYYCARGVTMVRGLIIARYYYGLDVWGQGTTVTVSS
VL: DIVMTQTPLSSPVTFGQPASISCRSSQSLVHSDGNTYLSWLQQRPGQPPRLLIYKISNRFFGVPDRFSGSGAGTDFTLKISRVEAEDVGLYYCMQSTQFPLTFGGGTKVEIK
notes: as for B1
As to B3, the “VEGF-E-mediated Survival % Inhibition (Average)” value in [1] is -1%. The “VEGF-E-mediated Survival % Inhibition (n = 1)” value in experiment [1] was -3%. Moreover, the “VEGF-E-mediated Survival % Inhibition (n = 2)” value in experiment [1] stood at 1%. The ELISA reading in experiment [2] came to 6; in experiment [3] it was 4.34; in experiment [4] it was 3.41; in [5], 1.56; in experiment [6] it was 0.7; in [7], 0.26. The ELISA reading was determined as 1.46 in experiment [8]; 2.28 in experiment [9]; 0.12 in [10]; 0.82 in [11]; 0.39 in [12]; 0.22 in experiment [13].

B4: 30D7 (antibody, V domains shown)
VH: QVPLVESGGGVVQPGRSLRLSCAASGFTFSSYGMHWVRQAPGKGLEWVAVIWYDGSNKYYADSVKGRFTISRDNSKNTLYLQMNSLRAEDTAVYYCARGVTMVRGVIIARYYYGLDVWGQGTTVTVSS
VL: DIVMTQTPLSSPVTLGQPASISCRSSQSLVHSDGNTYLSWLQQRPGQPPRLLIYKISNRFFGVPDRFSGSGAGTDFTLKIGRVEAEDVGLYYCMQSTQFPLTFGGGTKVEIK
notes: as for B1
As for B4, the “VEGF-E-mediated Survival % Inhibition (Average)” value in experiment [1] was -24%. The “VEGF-E-mediated Survival % Inhibition (n = 1)” value in experiment [1] was -27%. The “VEGF-E-mediated Survival % Inhibition (n = 2)” value in experiment [1] was -22%. Moreover, the ELISA reading is 4.66 in experiment [2]; 5.09 in experiment [3]; 6 in experiment [4]; 4.24 in [5]; 2.79 in experiment [6]; 1.02 in [7]. Besides, the ELISA reading came to 1.51 in [8]; 2.93 in experiment [9]; 0.82 in experiment [10]; 0.79 in experiment [11]; 0.48 in experiment [12]; 0.27 in experiment [13].

B5: 1G6 (antibody, V domains shown)
VH: EVQLLESGGGLVQPGGSLRLSCAASGFTFSSYAMSWVRQAPGKGLEWVSAISGGGGNTYYADSVKGRFTISRDNSKNTLYLQMNSLRAEDTAVYYCSKVATDYWGQGTLVTVSS
VL: QPVLTQSSSASASLGSSVKLTCTLSSGHSSYIIAWHQQQPGKAPRYLMKLEGSGSYNKGSGVPDRFSGSSSGADRYLTISNLQFEDEADYYCETWDSYTVVFGGGTKLTVL
notes: as for B1
For the molecule B5, in experiment [1], the “VEGF-E-mediated Survival % Inhibition (Average)” value is 2%. In experiment [1], the “VEGF-E-mediated Survival % Inhibition (n = 1)” value was -2%. Also, the “VEGF-E-mediated Survival % Inhibition (n = 2)” value in experiment [1] was 6%. Besides, the ELISA reading in experiment [2] was 6; in [3], 6; in experiment [4], 4.49; in experiment [5] it was 2.24; in [6], 0.69; in experiment [7], 0.34. In addition, the ELISA reading in [8] came to 0.65; in experiment [9], 1.38; in experiment [10], 0.26; in [11] it was 0.32; in experiment [12] it was 0.2; in experiment [13], 0.12.

B6: 22B8 (antibody, V domains shown)
VH: QLQLQESGPGLVKPSETLSLTCTVSGGSISSRYYYWGWVRQPPGKGLEWIGTIYYSGHTYYNPSLKTRVTISVDTSKNQFSLKLISVTAADTAVYYCATQQLVLYYFDFWGQGTLVTVSS
VL: EIVLTQSPGTLSLSPGERAALSCRASQSISSSYLAWYQQRPGQAPRLLIYGASSRATGIPDRFNGSGSGTDFTLTISRLEPEDFAVYYCQQFGSSITFGQGTRLEIK
notes: as for B1
As to B6, the “VEGF-E-mediated Survival % Inhibition (Average)” value in [1] came to 55%. Further, the “VEGF-E-mediated Survival % Inhibition (n = 1)” value in experiment [1] amounted to 57%. Besides, in experiment [1], the “VEGF-E-mediated Survival % Inhibition (n = 2)” value was determined as 53%. For the same molecule, the ELISA reading in experiment [2] turned out to be 6; in experiment [3], 6; in experiment [4], 6; in experiment [5], 3.49; in experiment [6] it was 1.27; in [7], 0.31. Also, the ELISA reading stood at 1.84 in [8]; 3.36 in [9]; 0.2 in [10]; 0.91 in [11]; 0.42 in experiment [12]; 0.21 in [13].
